Measured values reported in article PMC6697735, “Generation of amine dehydrogenases with increased catalytic performance and substrate scope from ε-deaminating L-Lysine dehydrogenase” (Nature Communications, 2019).

Experiments:
CC(=O)c1ccccc1 = experiment: purified protein; conditions: NADH model: phenyl ring in the new hydrophobic cavity created by F173A
O=Cc1ccccc1 = experiment: purified protein; conditions: NADH
[1] = molecular target: T1, LE-AmDH-v1 (ε-deaminating L-lysine dehydrogenase LysEDH F173A) (Geobacillus stearothermophilus, UniProt Q9AJC6, F173A); experiment: steady-state kinetics, Lineweaver-Burk competitive product inhibition, NADH oxidation at […] nm, […] °C; type: biochemical
T1 construct: gene lysDH

| Molecule | Km (CC(=O)c1ccccc1) | Km (O=Cc1ccccc1) | Ki [1] |
| --- | --- | --- | --- |
| LE-AmDH-v1 (ε-deaminating L-lysine dehydrogenase LysEDH F173A) (Geobacillus stearothermophilus; F173A) | 5.5 ± 0.5 mM | 4.9 ± 0.5 mM | – |
| C[C@@H](N)c1ccccc1 [(R)-8b] | – | – | 4.48 mM |
